As usually defined, the EC50 is the concentration giving half of the maximal effect.

Five molecules from patent US20250326840A1 (QURE BIOTECHNOLOGY SHANGHAI, published 2025) can be followed below.

The target of experiment [1] is T1, QP535 (SIRPαV6-mFC(mIgG2a)) (human, limits assumed).
T1 construct: also called human SIRPα V6 recombinant protein (QP535)
T1 chain: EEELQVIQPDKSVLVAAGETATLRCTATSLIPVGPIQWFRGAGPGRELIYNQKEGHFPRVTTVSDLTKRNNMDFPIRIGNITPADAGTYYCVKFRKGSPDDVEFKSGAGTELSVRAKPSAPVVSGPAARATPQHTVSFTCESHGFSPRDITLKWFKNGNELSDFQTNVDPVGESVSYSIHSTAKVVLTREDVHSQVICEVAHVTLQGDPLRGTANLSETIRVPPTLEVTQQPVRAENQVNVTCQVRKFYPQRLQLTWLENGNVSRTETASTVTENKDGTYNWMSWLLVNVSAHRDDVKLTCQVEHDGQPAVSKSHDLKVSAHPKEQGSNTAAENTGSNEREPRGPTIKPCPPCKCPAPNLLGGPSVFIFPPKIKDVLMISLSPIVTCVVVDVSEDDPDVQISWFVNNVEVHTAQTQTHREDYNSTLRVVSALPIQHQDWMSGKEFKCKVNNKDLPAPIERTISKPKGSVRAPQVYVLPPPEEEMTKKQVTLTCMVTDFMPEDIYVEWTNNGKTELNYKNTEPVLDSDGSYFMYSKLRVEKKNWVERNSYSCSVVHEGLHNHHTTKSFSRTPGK
The experiment can be described thus: ELISA, human SIRPα V6 recombinant protein (QP535) coated, HRP anti-human Fc detection.

Experiment [2] deals with T2, SIRPα V9 fusion Fc (mouse IgG2a) (human, limits assumed).
T2 chain: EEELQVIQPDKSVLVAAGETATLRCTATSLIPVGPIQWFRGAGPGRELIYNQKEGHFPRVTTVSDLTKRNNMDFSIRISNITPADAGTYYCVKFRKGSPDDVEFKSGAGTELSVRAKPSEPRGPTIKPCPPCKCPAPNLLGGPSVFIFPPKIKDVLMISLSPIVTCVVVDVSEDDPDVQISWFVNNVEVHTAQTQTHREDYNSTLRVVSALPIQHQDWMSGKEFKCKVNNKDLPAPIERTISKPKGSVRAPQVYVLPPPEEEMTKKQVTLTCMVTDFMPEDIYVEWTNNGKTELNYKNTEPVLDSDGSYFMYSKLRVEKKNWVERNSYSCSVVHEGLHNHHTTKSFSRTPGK
Briefly: ELISA, SIRPα V9-mouse IgG2a Fc coated, anti-hFab detection; unit from the x axis Log(Conc.(nM)).

Experiment [3] addresses T3, SIRPα V6 fusion Fc (mouse IgG2a) (human, limits assumed).
T3 chain: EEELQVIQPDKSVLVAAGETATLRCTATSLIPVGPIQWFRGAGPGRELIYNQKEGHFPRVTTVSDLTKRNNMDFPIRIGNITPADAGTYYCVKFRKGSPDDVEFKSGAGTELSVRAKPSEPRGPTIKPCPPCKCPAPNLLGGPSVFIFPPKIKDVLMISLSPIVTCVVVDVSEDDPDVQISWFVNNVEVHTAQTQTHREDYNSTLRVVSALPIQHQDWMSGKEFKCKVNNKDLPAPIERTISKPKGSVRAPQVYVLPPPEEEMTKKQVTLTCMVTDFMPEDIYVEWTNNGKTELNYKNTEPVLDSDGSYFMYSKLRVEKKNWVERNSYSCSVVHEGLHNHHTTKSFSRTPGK
The experiment can be described thus: ELISA, SIRPα V6-mouse IgG2a Fc coated, anti-hFab detection; unit from the x axis Log(Conc.(nM)).

For experiment [4], the target named is T4, SIRPα V1 fusion Fc (mouse IgG2a) (human, limits assumed).
T4 chain: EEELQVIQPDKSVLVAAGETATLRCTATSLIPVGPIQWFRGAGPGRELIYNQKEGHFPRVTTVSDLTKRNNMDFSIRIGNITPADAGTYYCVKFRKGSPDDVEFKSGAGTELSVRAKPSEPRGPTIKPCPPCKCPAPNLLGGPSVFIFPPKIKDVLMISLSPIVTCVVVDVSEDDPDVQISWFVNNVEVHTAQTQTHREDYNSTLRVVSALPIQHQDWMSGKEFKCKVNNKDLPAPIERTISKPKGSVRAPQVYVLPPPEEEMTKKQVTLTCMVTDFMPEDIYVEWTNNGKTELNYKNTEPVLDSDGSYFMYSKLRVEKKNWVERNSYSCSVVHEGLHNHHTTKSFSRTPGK
The experiment can be described thus: ELISA, SIRPα V1-mouse IgG2a Fc coated, anti-hFab detection; unit from the x axis Log(Conc.(nM)). On the technique in general: ELISA stands for enzyme-linked immunosorbent assay.

The target of experiment [5] is T5, human SIRPα V1 on U-937 cells (human, UniProt P78324 31-504).
T5 construct: whole, on cells
Briefly: FACS on U-937 cells.

Experiment [6] addresses T6, QP093 (human SIRPα V1 ECD(E31-R370)-mFC(IgG2a)) (human).
T6 construct: also called Human SIRPα V1 recombinant protein (QP093)
T6 chain: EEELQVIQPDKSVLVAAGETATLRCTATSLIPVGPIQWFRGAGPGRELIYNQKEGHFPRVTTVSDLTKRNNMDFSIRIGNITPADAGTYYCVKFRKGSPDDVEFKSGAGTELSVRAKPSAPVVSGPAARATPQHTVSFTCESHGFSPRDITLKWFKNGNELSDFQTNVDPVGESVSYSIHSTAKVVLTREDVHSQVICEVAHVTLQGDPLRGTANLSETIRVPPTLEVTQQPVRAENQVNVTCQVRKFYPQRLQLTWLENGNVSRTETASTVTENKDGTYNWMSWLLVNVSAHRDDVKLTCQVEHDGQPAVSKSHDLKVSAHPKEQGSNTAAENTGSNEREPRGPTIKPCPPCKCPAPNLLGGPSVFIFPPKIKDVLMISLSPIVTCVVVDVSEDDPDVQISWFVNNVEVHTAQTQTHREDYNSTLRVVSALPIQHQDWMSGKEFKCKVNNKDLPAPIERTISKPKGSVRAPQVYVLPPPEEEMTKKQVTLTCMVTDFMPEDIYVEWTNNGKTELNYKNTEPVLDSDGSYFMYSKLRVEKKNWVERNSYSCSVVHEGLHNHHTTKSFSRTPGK
The experiment can be described thus: ELISA, human SIRPα V1 recombinant protein (QP093) coated, HRP anti-human Fc detection.

Experiment [7] addresses T7, QP537 (SIRPαV8-mFC(mIgG2a)) (human).
T7 construct: also called human SIRPα V8 recombinant protein (QP537)
Briefly: ELISA, human SIRPα V8 recombinant protein (QP537) coated, HRP anti-human Fc detection.

Experiment [8] deals with T8, QP536 (SIRPαV7-mFC(mIgG2a)) (human).
T8 construct: also called human SIRPα V7 recombinant protein (QP536)
The experiment can be described thus: ELISA, human SIRPα V7 recombinant protein (QP536) coated, HRP anti-human Fc detection.

B1: QP250251 (18D5 analog) (antibody, human IgG4 S228P, kappa, V domains shown)
VH: QVQLQQPGAELVRPGSSVKLSCKASGYTFTSYWVHWVKQRPIQGLEWIGNIDPSDSDTHYNQKFKDKASLTVDKSSSTAYMQLSSLTFEDSAVYYCVRGGTGTMAWFAYWGQGTLVTVSA
VL: DVVMTQTPLSLPVSLGDQASISCRSSQSLVHSYGNTYLYWYLQKPGQSPKLLIYRVSNRFSGVPDRFSGSGSGTDFTLKISRVEAEDLGVYFCFQGTHVPYTFGSGTKLEIKR
notes: also called SIRPα antibody 18D5 from OSE
As to B1, the concentration for a half-maximal effect (EC50) amounted to 0.884 nM in experiment [1]; 0.157 nM in experiment [2]; 0.114 nM in experiment [3]; 0.154 nM in experiment [4]; 0.581 nM in experiment [5]; 0.438 nM in experiment [6].

B2: QP026249 (KWAR23 analog) (antibody, human IgG4 S228P, kappa)
heavy: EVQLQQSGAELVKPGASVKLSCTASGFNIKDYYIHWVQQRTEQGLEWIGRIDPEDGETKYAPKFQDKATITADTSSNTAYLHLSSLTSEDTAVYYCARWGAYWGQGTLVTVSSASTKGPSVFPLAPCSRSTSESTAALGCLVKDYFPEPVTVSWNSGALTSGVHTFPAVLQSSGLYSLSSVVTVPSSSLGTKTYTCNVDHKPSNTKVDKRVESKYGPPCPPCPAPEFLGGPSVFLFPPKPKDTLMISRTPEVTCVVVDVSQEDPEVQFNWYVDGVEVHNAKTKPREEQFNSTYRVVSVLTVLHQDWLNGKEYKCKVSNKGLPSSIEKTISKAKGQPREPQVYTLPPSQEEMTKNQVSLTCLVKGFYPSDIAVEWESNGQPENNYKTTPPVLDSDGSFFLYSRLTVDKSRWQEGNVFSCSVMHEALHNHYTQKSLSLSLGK
light: QIVLTQSPAIMSASPGEKVTLTCSASSSVSSSYLYWYQQKPGSSPKLWIYSTSNLASGVPARFSGSGSGTSYSLTISSMEAEDAASYFCHQWSSYPRTFGAGTKLELKRTVAAPSVFIFPPSDEQLKSGTASVVCLLNNFYPREAKVQWKVDNALQSGNSQESVTEQDSKDSTYSLSSTLTLSKADYEKHKVYACEVTHQGLSSPVTKSFNRGEC
notes: also called KAWA23 analog; control antibody KWAR23 (QP026249), human IgG4
As for B2, the concentration for a half-maximal effect (EC50) in experiment [1] came out at 0.603 nM; in experiment [2], 0.181 nM; in experiment [7], 0.689 nM; in experiment [3] it was 0.119 nM; in experiment [4], 0.16 nM; in experiment [5] it was 0.21 nM. Moreover, the concentration for a half-maximal effect (EC50) is 0.442 nM in experiment [6] and 0.376 nM in experiment [8].

B3: QP256279 (antibody, human IgG4, V domains shown)
VH: QVQLVQSGAEVKKPGASVKVSCKASGYTFTNYWINWVRQAPGQGLEWIAMIDPSDSETHYNQIFKDRATLTTDTSTSTAYMELRSLRSDDTAVYYCAMDYGSLYAMDYWGRGTLVTVSS
VL: DIVLTQSPDSLAVSLGERATINCRASQSVRSSGYNWIFWYQQKPGQPPKLLIYLASNRDSGVPDRFSGSGSGTDFTLTISSLQAEDVAVYYCQHSRELPTFGQGTKLEIK
notes: Human IgG4 heavy constant region and kappa CL
As for B3, the 50% effective concentration (EC50) was 0.0874 nM in experiment [2], 0.053 nM in experiment [3] and 0.0786 nM in experiment [4].

B4: QP32700279 (antibody, human IgG1, kappa, L234A L235A, V domains shown)
VH: QVQLVQSGAEVKKPGASVKVSCKASGYTFTNYWINWVRQAPGQGLEWIAMIDPSDSETHYNQIFKDRATLTTDTSTSTAYMELRSLRSDDTAVYYCAMDYGSLYAMDYWGRGTLVTVSS
VL: DIVLTQSPDSLAVSLGERATINCRASQSVRSSGYNWIFWYQQKPGQPPKLLIYLASNRDSGVPDRFSGSGSGTDFTLTISSLQAEDVAVYYCQHSRELPTFGQGTKLEIKR
notes: also called SIRPα monoclonal antibody CHO71
In the case of B4, the EC50 was 0.224 nM in experiment [1]; 0.341 nM in experiment [7]; 0.076 nM in experiment [5]; 0.161 nM in experiment [6]; 0.176 nM in experiment [8].

B5: QP37503751 (1H9 analog) (antibody, human IgG1, kappa, N297A, V domains shown)
VH: QVQLVQSGAEVKKPGASVKVSCKASGYTFTSYWITWVKQAPGQGLEWIGDIYPGSGSTNHIEKFKSKATLTVDTSISTAYMELSRLRSDDTAVYYCATGYGSSYGYFDYWGQGTLVTVSS
VL: DIQMTQSPSSLSASVGDRVTITCRASENIYSYLAWYQQKPGKAPKLLIYTAKTLAEGVPSRFSGSGSGTDFTLTISSLQPEDFATYYCQHQYGPPFTFGQGTKLEIKR
notes: also called hz1H9 hIgG1(N297A)
As to B5, the half-maximal effective concentration (EC50) worked out at 0.273 nM in experiment [1]; 0.908 nM in experiment [7]; 0.158 nM in experiment [5]; 0.177 nM in experiment [6]; 0.247 nM in experiment [8].
